Assay results from US20240287489A1, “CHITINOLYTIC ENZYME-BASED PLANT PROTECTION AGENTS” (GLOBACHEM NV, priority 2021, published 2024).

Columns and labels:
[1] = tested on: Septoria tritici; experiment: Minimum inhibitory concentration (MIC) test on fungal pathogens; assay type: cell-based; set-up: key: xx = no growth/strong inhibition; x = small inhibition; settings: start concentration 100 μg/ml
[2] = Reducing end assay, specific chitinase activity of expression and purification fractions; assay type: biochemical; settings: chitin powder, 16 h at 30° C.
Experimental: Integrity and correctness of the constructs was confirmed by colony PCR and Sanger-sequencing. All constructs were transformed into E. coli BL21 and expressed recombinantly. Expression levels of the target enzymes were determined densitometrically after immunoblot detection for cytosolic and secreted expression. Enzymatic activity was determined for all samples using a reducing end assay. […] Furthermore, it was confirmed that these enzymes are efficiently released into the culture supernatant, rendering cell lysis unnecessary for future production cycles.
A two-step purification of the selected recombinant enzymes with PelB signal peptide form the culture supernatant was carried out with an initial ammonium sulfate precipitation step and a sequential IMAC purification of the solubilized protein precipitate. Elution fractions were pooled and an SDS-PAGE and immunoblot was prepared loading the same volume for each sample (FIG. 4). Expression levels of the five chitinases varied largely, and C1 was detected in much greater abundance relative to the others. […] The observed molecular weight of all enzymes in SDS-PAGE gel and immunoblot was not in accordance with the expected theoretical molecular weight taking into account that a 6×His tag was added C-terminally to the enzymes and in general, bands for all enzymes were detected at a higher molecular weight. For all samples, unspecific bands could detected at ˜25 kDa and ˜50 kDa after IMAC purification, most likely representing host cell protein-contaminations. The amount of protein in the culture media, ammonium sulfate concentrates and the final dialyzed elution fractions was determined using the BCA assay and the same fractions were incubated with chitin powder for 16 h at 30° C. followed by the quantification of reducing sugars to measure specific chitinase activity (Table 4.2). Thereby it was confirmed that all target enzymes were successfully enriched during purification according to the specific activity.
For the determination of enzymatic activity of recombinant chitinases, a reducing end assay was carried out [Svein et al., Carbohydr Polym, 2004. 56(1): p. 35-39.]. Fractions containing chitinases were incubated with 5% (w/v) chitin powder extracted from shrimp shells (˜400.000 g/mol; Carl Roth) in MAT buffer for 2 h in an overhead shaker at ambient temperature (standard conditions). Samples were centrifuged at 13000×g for 2 min and 40 μl of the supernatant was mixed with 40 μl 0.5 M NaOH and 40 μL of a reagent containing 1.5 mg/ml 3-Methyl-2-benzothiazolinonhydrazon and 0.75 mg/ml Dithiothreitol. Samples were incubated at 80° C. for 15 min and then thoroughly mixed with 80 μl of 0.5% (w/v) FeNH4(SO4)2)×12H2O, 0.5% (w/v) sulfamic acid and 0.25 M HCl. After cooling down to room temperature, 100 μl of the samples were measured at 620 nm. A calibration curve of N-acetyl-glucosamine was constructed freshly for each measuring cycle. One unit [U] was defined as the amount of enzyme required to release 1 μmol of reducing sugars per hour.

[3] = Substrate specificity, reducing end assay; assay type: biochemical; settings: in % activity of chitin powder; 16 h at optimum conditions, 50 mg/ml substrate
Experimental: Different chitinous substrates were tested to assess the substrate affinity of the novel chitinases relative to untreated chitin powder. […] As expected, the conversion of colloidal chitin is more efficient compared to chitin powder as it provides an overall smaller particle size and thereby larger surface area. Chitosan powder (degree of acetylation: 15%) was also degraded efficiently and high chitosanase activity was observed especially for C1, C3, C4 and C5. Merely basal activity was detected when cellulose was utilized as a substrate for all enzymes.
The preparation of colloidal chitin was similar to the method described by Murthy and Bleakley with some minor differences [Murthy et al., Microbiol., 2012. 10(2): p. 1-5.]. Chitin powder (Carl Roth) was dissolved in concentrated hydrochloric acid (HCl) (5 g in 100 mL) and stirred at 4° C. for 24 h, after which the mixture was centrifuged at 4000×g for 15 min at 4° C. The precipitate was washed to neutral pH with distilled water and stored at 4° C.
Enzyme samples were incubated at different temperature (10-60° C., 10° C. increment) and pH (4-11, increment 1) using different buffer systems (Acetate, Tris-HCl, MES, total molar concentration 100 mM), as well as NaCl content (0, 1. 2.5, 5, 10 and 20% w/v) to determine optimum reaction conditions. All experiments were carried out at 1.0 ml scale using 2 μM of the respective enzymes and a 5% (wv) suspension of chitin powder extracted from shrimp shells (˜400.000 g/mol; Carl, Roth) in 100 mM MAT buffer. For the determination of the substrate specificity, chitin powder (5% w/v), glycol chitin (10% v/v), colloidal chitin (5% w/v), chitosan [DA 15-25%, medium molecular weight, Sigma-Aldrich] (5% w/v) and microcrystalline cellulose powder (Sigma Aldrich) (5% w/v) were investigated, respectively. The effect of several potential co-factors on activity was elucidated at a concentration of 1 mM. Additionally, the effect of detergents [SDS 0.5% (w/v), Tween-20 and Triton X-100 both at 0.5% (v/v)] and chemicals (Imidazole 100 mM, EDTA 1 mM) on enzymatic activity was assessed. Samples were incubated in a thermomixer for 16 h at 900 rpm. After incubation, samples were analyzed using the enzyme assay. Thermostability was assessed after incubation of recombinant chitinases at 60° C. for different durations followed by the quantification of residual enzyme activity under standard assay conditions.

[4] = tested on: Gibberella zeae; assay type: cell-based; set-up: key: xx = no growth/strong inhibition; x = small inhibition; settings: start concentration 100 μg/ml
[5] = Dialysed elution fraction after IMAC

| Molecule | growth inhibition of Septoria tritici in the MIC test [1] | Specific activity ([2]; Culture supernatant fraction) [U/mg] | Specific activity [2, 5] [U/mg] | Relative activity, Colloidal chitin [3] [%] | growth inhibition of Gibberella zeae in the MIC test [4] |
| --- | --- | --- | --- | --- | --- |
| Chitinase 1: chitinolytic enzyme from P. orarium, SEQ ID NO: 1, recombinant with PelB signal peptide and 6×His tag; run 19 = 2 μM alone (protein, listed as Photobacterium orarium, PelB signal peptide; 6xHis tag; Chitinase 1, run 19 = 2 μM alone) MAAPGTPQIAWMETDYAIVEVDQAASAYKSLITVKPAAEVPVAWQRYSGETADLWKVKLNGNVVFEQSIAPASSGAGSTTLSVAQGGQYAMTVELCSGTGAAQACTSSAATNIVVADTDGSHLDPLPMNVDANNGNYTTPANTVVGAYFVEWGVYGRKFSVDNIPAQNLTHILYGFIPICGPNESLGEIENGNSLAALNRACQGTPDYEVVIHDPWAAVQMPQPQSGHTHSTPYKGTYGQMMALKQRYPDLKIVPSVGGWTLSDPFYSFTDKAKRDIFVASVKKFLKTWKFFDGVDIDWEFPGGKGANANLGDPVNDGPAYVALMRELRVMLDELEAETGRQYELTSAIGVGYDKIDVVNYADAVQYMDYIFAMTYDFFGGWNNVPGHQTALFCGSHMSADVCNGTGVDENGVPRQGPAYTAAHGIDRLLAQGVPANKLVLGTAMYARGWTGVTEASMTDPTNPMTGTGNGMVPGSWEPGVIDYKDVVTDYINNAAVTKGYDAQAEAPWAYNPSNGNLITYDDRRSVLAKGQYVRNLGLAGLFAWEIDADNGDILNAMQDSLAGGGGNYAPVAKAGADQVVNGAASVTLDGSASSDRDGQIVSYQWTQTSGPALTLTGSDTATATVAVPEVTADTQYAFTLTVTDNAGDTATDSVTVTAKAPGSNTAPVVAVSGPATASAGDTVVLDASQSSDADGDTLTFTWTVPAGVNATVNGATVSFVADSYTVDTPLNFTVAVSDGTDSVTESVTVTVLKDGGSTGCTNAWATGGVYNSGDIVTHSGKSWKAKWWTTGEEPGTTGEWGVWEDLGAANCQIE | xx | 0.10 | 3.52 | 159.9 ± 4.8 | x |
| Chitinase 4: chitinolytic enzyme from P. orarium, SEQ ID NO: 4, recombinant with PelB signal peptide and 6×His tag (protein, listed as Photobacterium orarium, PelB signal peptide; 6xHis tag; Chitinase 4) MAQAAANCRPDGLYQTPGVTVPYCTVYDQDGREKMGVDHPRRVIGYFTSWRSGNDPQSSYLVNDIPWDSLTHINYAFVSIGSDGKVNIGNVNNPDNPAVGKEWPGVEIDPALGFKGHFGALATAKAQHGVKTLISIGGWAETGGHFDDNGNRVADGGFYTMTTNADGSINHQGIQTFADSAVAMMRQYKFDGLDIDYEYPTSMQGAGNPDDFAYSDAMRPHLMKSYHELMKVLREKLDQASAQDGHHYMLTIAAPSSGYLLRGMETMSVTKYLDYVNIMSYDLHGAWNDYVGHNASLFDSGLDAELEAGNVYGTAQYKKTGYLNTDWAYHYFRGSMPAGRINIGVPYYTRGWQGVTGGTNGLWGKAALPNQSDCPTGTGAGTSNCGYGAIGIDNMWHDKDANGNEMGAGSNPMWHAMNLANGVYGSYTAAYGLDPVNDPQDALTGTYTRHYDSVSVAPWLWNADKKVFLSTEDKESINTKADYVIEQGIGGIMFWELAGDYSCYNLDANGNRTTVDPTENACKTGNGEYHMGDTMTKAIHNKFATATPYGNTLAEGAIPTEAVNIDVSVTGFKVGDQNYPLNPTMTLTNKTGQTLPGGTEFQFDIPTSTPDNMSDQSGANLQVISSGHTRGDNIGGLDGNFHRVAFTLPSWKQLGNNESFELTLNYFLPISGPANYSVRVNNADYALAFEQPDLPIADLSNGGGDNGGGDGNNGDCVTTGVNTYPNWPQTDWAGNPSHAGTGDKIIYNGAVYQAKWWTNSVPGSDGSWDTVCTVQIE |  | 0.07 | 6.07 | 117.7 ± 6.3 | x |
| Chitinase 3: chitinolytic enzyme from P. orarium, SEQ ID NO: 3, recombinant with PelB signal peptide and 6×His tag (protein, listed as Photobacterium orarium, PelB signal peptide; 6xHis tag; Chitinase 3) MALAAPGTPQLAWMETDYAIVEVDQAATAYKDLVTVKNAADVPVAWQRYSGETADHWKVKLNGNVAFEESINPASSGAGSTTLSITQGGQYALTVELCSGSGAEEACSSSPATNIVVADTDGSHLDPLPMNVDPNNGTYSTPADTVVGAYFVEWGVFGRKFTVDKIPAQNLTHILYGFIPVCGPNESLGEIESGNSLAALNRACAGTPDFEVAIHDPWAAVQMPQPQSGHTYSTPYKGNYGQLMALKQRYPDLKVIPSIGGWTLSDPFFSFTDKSKRDVFVASVKKFLQTWKFFDGVDIDWEFPGGKGANTTLGDPVNDGPAYVALMRELRTMLDGLEAETGRQFELTSAIGVGYDKIDVVNYAEASQYMDYIFNMSYDFYGGWSNVTGHQTALNCGSHLTADQCNGTGVDENGEPRQGPAYTTAHGVERLLAQGVPANKLVVGAAMYGRGWTGVTQASMTDPSNPMTGVGNGAVAGSWEAGVIDYKDVVTRYENKAGVVLGYDEQAEAPWAYDPSNGDLVTYDSPRSIMAKGQYVRDLGLAGLFAWEIDADNGDILNAMQESLAGAPAGNRAPVARAGSDQQVNTAATVTLNGSSSTDSDGQIAGYQWVQTSGPALTLNGANTASATISVPDVTVDTQYVFTLTVTDNEGATATDSITVTAKAPGAQNTAPVASLTGPGTANADDVITLDASQSTDADGDTLTYDWTVPAGVNAVINGSSLSFTADSYTTDTALSFSVSVSDGTASDAASLTVTIAKDESGTGGEGDFPAYVEGTAYQAGDQVSNGGVNFECKPYPYSGWCSGAAWAYEPGVGVYWQDAWTQLIE |  | 0.13 | 8.13 | 133.4 ± 6.5 | x |
| Chitinase 2: chitinolytic enzyme from P. orarium, SEQ ID NO: 2, recombinant with PelB signal peptide and 6×His tag (protein, listed as Photobacterium orarium, PelB signal peptide; 6xHis tag; Chitinase 2) MATANYNPDGVYSAGEQVIYQGATYQALRSTENEAPDTYLGDAWQQVNAQNVTSSTTPTYPAYQSSAVYVGGDHVSYNSQIYKAKWWTQGEAPDATPGTGVWEWVSADNNPDPGPGPDPDPTPEPTPANGIIGQNPDGSYIMSKTYLDAREAELTSSPEFAAVLASISTRDNAVVEAVVPGLSTNPDNVKRVEALISEQKWDALFPERNVVYTYSNFLKAVAKFKGFCATYTDERAAQSDAICAKSLAVMFAHFTQETGAHNPHSPYEEWRQGLFFVREAGCSEEASSCGYNSECAASNWQTEQWPCGTNPDGSYVKYFGRGAKQLSYHYNYGPFSDFIFNDVNVLLQDPDRVADSWLNLASAVFFFVYPQPPKPSMLHVIDGTWQPTAADIAEKRVPGFGVTTMIINGGIECTLDTEKPQSVNRIKYYRGHAAALGVAIPADEQLGCAGMKAFKKTGDSTFGLYWENDWSYYPDNPGGSSFACRIESGYQTAHTTLKKGDYAKCIQKYYGVTIE | xx | 0.04 | 5.36 | 191.4 ± 4.7 | xx |
